Measured values reported in patent US20050070689A1 (Genentech, published 2005).
Blank lines part the entries; values can stand above or below the binder they belong to.

Assays:
[1] = target: T1, TACIs expressed on transfected COS 7 cells (human, UniProt O14836 1-292); experiment: AP-APRIL staining of transfected cells, in situ AP activity
T1 sequence: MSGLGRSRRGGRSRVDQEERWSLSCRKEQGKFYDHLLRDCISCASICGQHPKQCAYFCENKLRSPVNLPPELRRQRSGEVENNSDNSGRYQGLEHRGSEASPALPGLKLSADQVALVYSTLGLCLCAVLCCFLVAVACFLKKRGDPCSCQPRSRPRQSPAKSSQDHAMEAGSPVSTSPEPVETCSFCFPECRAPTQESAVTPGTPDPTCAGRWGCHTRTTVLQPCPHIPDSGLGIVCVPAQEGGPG

[2] = target: T2, murine BR3 expressed on transfected COS 7 cells (murine, UniProt Q9D8D0 1-175); experiment: AP-ligand conditioned medium on transfected COS 7 cells, in situ AP staining
T2 construct: also called mBR3
T2 sequence: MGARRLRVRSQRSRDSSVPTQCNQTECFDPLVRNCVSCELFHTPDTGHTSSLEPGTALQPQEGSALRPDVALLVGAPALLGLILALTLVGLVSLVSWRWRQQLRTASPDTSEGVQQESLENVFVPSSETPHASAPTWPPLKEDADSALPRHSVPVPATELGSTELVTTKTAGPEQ

[3] = target: T3, human TACI (265 amino acid form) expressed on transfected COS 7 cells (human, UniProt O14836 1-258); experiment: as above
T3 construct: also called hTACI (265)
T3 sequence: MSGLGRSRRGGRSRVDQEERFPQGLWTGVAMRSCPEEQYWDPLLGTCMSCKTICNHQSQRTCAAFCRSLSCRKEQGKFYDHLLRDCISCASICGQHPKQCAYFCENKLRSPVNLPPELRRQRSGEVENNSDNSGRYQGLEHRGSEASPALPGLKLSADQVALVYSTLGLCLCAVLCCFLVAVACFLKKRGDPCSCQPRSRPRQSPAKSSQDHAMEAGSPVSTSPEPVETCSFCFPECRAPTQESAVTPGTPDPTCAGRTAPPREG

[4] = target: T4, human BR3 expressed on transfected COS 7 cells (human, UniProt Q96RJ3 1-184); experiment: figure legend: AP-ligand conditioned medium on transfected COS 7 cells, in situ AP staining
T4 construct: also called hBR3
T4 sequence: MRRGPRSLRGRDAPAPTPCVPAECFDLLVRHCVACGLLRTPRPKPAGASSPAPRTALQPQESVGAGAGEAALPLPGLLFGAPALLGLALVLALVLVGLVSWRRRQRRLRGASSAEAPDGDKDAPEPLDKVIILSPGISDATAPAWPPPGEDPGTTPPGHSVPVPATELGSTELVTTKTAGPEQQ
Method: (a) COS 7 transfected with hBR3 (1,2) or TACI (3,4) were incubated with conditioned medium containing AP-TALL-1 (1,3) or AP-April (2,4). Cells were washed, fixed, and stained for the AP activity in situ. (b) COS7 cells transfected with TALL-1 (1,2) or April (3,4) were incubated with hBR3-hFc (1,3) or TACI-hFc (2,4). Cells were washed, fixed, and bound receptor-hFc protein was detected using a biotinylated goat anti-human antibody followed by Cy3-streptavidin. (c) BR3-hFc (1,2) or TACI-hFc (3,4) was incubated with Flag-TALL-1 (1,3) or Flag-April (2,4). The receptor-Fc fusion proteins precipitated with protein-A-agarose were subjected to immunoblotting with anti-Flag antibody. Equivalent amounts of ligand (middle panel) or receptor-hFc (bottom) were used in the binding experiment. (d) 293E cells (Invitrogen) were transfected with 0.25 ug of a NF-kB luciferase reporter gene construct, 25 ng pRL-TK, and indicated amounts of expression constructs encoding hBR3, mBR3, TACI and BCMA. NF-kB activation was determined 20-24 hours later using the Dual-Luciferase reporter assay kit (Promega).

[5] = target: T5, APRIL (full length cDNA clone without Flag tag) expressed on transfected COS 7 cells (human, UniProt O75888 105-250); experiment: receptor-Fc staining of transfected COS 7 cells, biotinylated anti-human antibody and Cy3-streptavidin
T5 construct: also called APRIL-transfected COS 7 cells
T5 sequence: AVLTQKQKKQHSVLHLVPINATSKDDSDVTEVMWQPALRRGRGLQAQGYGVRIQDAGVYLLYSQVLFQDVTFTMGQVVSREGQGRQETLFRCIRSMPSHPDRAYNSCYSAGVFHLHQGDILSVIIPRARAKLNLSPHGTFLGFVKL
Method: Transfected COS 7 cells were subsequently incubated with TACI.ECD.hFC immunoadhesin, hBr3-hFc, or mBR3-hFc (prepared as described above). Cells were incubated with the TACI ECD-IgG (or a TNFR1-IgG construct prepared as described in Ashkenazi et al., Proc. Natl. Acad. Sci., 88:10535-10539 (1991)) at 1 μg/ml for 1 hour in PBS. Cells were subsequently washed three times with PBS and fixed with 4% paraformaldehyde in PBS. Cell staining was visualized by incubation with biotinylated goat anti-human antibody (Jackson Labs, at 1:200 dilution) followed by Cy3-streptavidin (Jackson Labs, at 1:200 dilution). Murine BR3-Fc, like hBR3-hFc, also only bound TALL-1-transfected but not APRIL-transfected COS 7 cells (data not shown). […] In contrast, TACI-hFc fusion protein bound cells transfected with either TALL-1 or APRIL (FIG. 10).

AP-TALL-1 = target: T6, AP-TALL-1 (human, UniProt Q9Y275 136-285); experiment: AP-TALL-1 binding to transfected cells
T6 construct: Used as conditioned medium of transfected 293 cells; AP is at the N-terminus of TALL-1; Flag precedes AP (as described for AP-APRIL); not shown: human placental alkaline phosphatase (AP), amplified from pAPtag-5
T6 sequence (Q9Y275 136-285): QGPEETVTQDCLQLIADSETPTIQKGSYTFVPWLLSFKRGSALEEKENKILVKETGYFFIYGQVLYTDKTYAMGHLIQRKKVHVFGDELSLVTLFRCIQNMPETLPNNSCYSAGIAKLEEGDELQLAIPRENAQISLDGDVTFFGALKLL

binding result [1]: binds | binding result [2]: no binding | binding result [3]: binds | binding result [4]: no binding
B1: AP-APRIL (ligand)
chain: AVLTQKQKKQHSVLHLVPINATSKDDSDVTEVMWQPALRRGRGLQAQGYGVRIQDAGVYLLYSQVLFQDVTFTMGQVVSREGQGRQETLFRCIRSMPSHPDRAYNSCYSAGVFHLHQGDILSVIIPRARAKLNLSPHGTFLGFVKL
notes: APRIL fused C-terminally to AP, AP fused C-terminally to Flag; not shown: human placental alkaline phosphatase (AP)

binding result [5]: no binding
B2: Murine BR3-Fc (Fc fusion)
chain: MGARRLRVRSQRSRDSSVPTQCNQTECFDPLVRNCVSCELFHTPDTGHTSSLEPGTALQPQEGSALRPDVA
notes: Only 'prepared as described above' is said; also called mBR3-hFc; not shown: human IgG1 Fc region

binding result (AP-TALL-1): binds
B3: BCMA expressed on transfected cells (receptor)
chain: MLQMAGQCSQNEYFDSLLHACIPCQLRCSSNTPPLTCQRYCNASVTNSVKGTNAILWTCLGLSLIISLAVFVLMFLLRKISSEPLKDEFKNTGSGLLGMANIDLEKSRTGDEIILPRGLEYTVEECTCEDCIKSKPKVDSDHCFPLPAMEEGATILVTTKTNDYCKSLPAALSATEIEKSISAR
notes: The expression construct is only called 'BCMA'; also called BCMA-transfected cells
